Data published in patent publication US20260355310A1, “TREATMENT OF IGA NEPHROPATHY USING AN ENDOTHELIN RECEPTOR ANTAGONIST AND APRIL BINDING ANTIBODY” (CHINOOK THERAPEUTICS, INC., priority 2022, published 2026).

Tests used:
[1] = test system: endothelin A (ETA) receptor; conditions: cited from earlier work
ETB receptor = conditions: Wu-Wong et al. 2002; cited from earlier work
[2] = Oxidation reduction potential; format: physicochemical
[3] = test system: patients with diabetic kidney disease (DKD); conditions: Heerspink et al. 2019; cited from earlier work
IgA nephropathy patients = conditions: DAPA-CKD subanalysis; Wheeler et al. 2021; cited from earlier work
[4] = test system: human B cell maturation antigen (BCMA) / human APRIL; experiment: Blocking of APRIL binding to BCMA
[5] = test system: transmembrane activator and calcium modulator and cyclophilin ligand interactor (TACI) / human APRIL; experiment: Blocking of APRIL binding to TACI
[6] = test system: transmembrane activator and calcium modulator and cyclophilin ligand interactor (TACI) / human APRIL; conditions: receptors on lymphocytes; Guadagnoli 2011; cited from earlier work
BAFF = experiment: Binding to BAFF; conditions: BION-1301
healthy human volunteers = experiment: Immunoglobulin levels in healthy volunteers; format: in vivo
From the text: (§1) A humanized APRIL antagonistic monoclonal antibody (anti-APRIL antibody, as described herein) is in development for the treatment of IgAN, having undergone clinical trials in healthy volunteers (see clinicaltrials.gov NCT03945318). […] In addition, this blockade reduced Gd-IgAQ1 in healthy human volunteers. Consequently, it is expected that blockade of APRIL in patients with IgAN will lead to a reduction in levels of IgA, IgG, and IgM and corresponding reductions in gd-IgA1, auto-antibodies to gd-IgA1, immune complex deposition and renal damage.

patients with IgAN = experiment: Phase 1/2 clinical study in patients with IgAN, interim results; format: in vivo, human
From the text: BION-1301 has been studied in adults with relapsed or refractory multiple myeloma as well as healthy volunteers (HVs) and adults with IgAN. Since the initiation of the BION-1301 clinical program through 26 Jul. 2022, a total of 153 adults have been enrolled in 5 clinical studies. […] Gd-IgA1, and proteinuria (as measured by areduction in UPCR).
BION-1301 has been studied in adults with relapsed or refractory multiple myeloma as well as healthy volunteers (HVs) and adults with IgAN. Since the initiation of the BION-1301 clinical program through 26 Jul. 2022, a total of 153 adults have been enrolled in 5 clinical studies.

[7] = test system: healthy cynomolgus monkeys; experiment: Immunoglobulin levels in healthy cynomolgus monkeys; format: in vivo
From the text: as §1

[8] = test system: human B cell maturation antigen (BCMA) / human APRIL; conditions: receptors on lymphocytes; Guadagnoli 2011; cited from earlier work
[9] = IV 450 mg Q2W, patients with IgAN, interim results
[10] = SC 600 mg Q2W after at least 24 weeks of IV administration

## CCCCN(CCCC)C(=O)CN1C[C@H](c2ccc3c(c2)OCO3)[C@@H](C(=O)O)[C@@H]1c1ccc(OC)cc1 [Atrasentan, (2R,3R,4S)-4-(1,3-benzodioxol-5-yl)-1-[2-(dibutylamino)-2-oxoethyl]-2-(4-methoxyphenyl)pyrrolidine-3-carboxylic acid]
[1]; ETA inhibitor, ETA relative to ETB, literature
  selectivity for ETA relative to ETB: about 1,860 times
[1]; ETA relative to ETB, Wu-Wong et al. 2002
  ETA selectivity: ~ 1800 x
[1]; Wu-Wong et al. 2002
  Ki: ~0.034 nM
ETB receptor
  Ki: ~63 nM
[2]
  oxidation reduction potential: about 900 mV
[3]
  risk of renal events (doubling of serum creatinine or end-stage kidney disease): significantly reducing the risk of renal events

## CCOc1ccc(Cc2cc([C@@H]3O[C@H](CO)[C@@H](O)[C@H](O)[C@H]3O)ccc2Cl)cc1 [dapagliflozin]
IgA nephropathy patients
  safety and efficacy as addition to standard of care in IgA nephropathy: may be a safe and effective addition to current standard of care in IgA nephropathy

B1: BION-1301: IgG4 humanized monoclonal antibody having CAS Registry No. 2642175-46-8; SEQ ID NO: 28 for the heavy chain and SEQ ID NO: 30 for the light chain (antibody, chains of the INN, looked up, V domains shown)
VH: QVQLVQSGAEVKKPGASVKVSCKASGYTFTDYTIHWVRQATGQGLEWMGWIYPLRGSINYAQKFQGRVTMTADKSISTVYMELSSLRSEDTAVYFCARHGAYYSNAFDYWGQGTLVTVSS
VL: EIVMTQSPATLSVSPGERATLSCRASESVDNDGIRFLHWYQQKPGQAPRLLIYRASTRATGIPARFSGSGSRTEFTLTISSLQSEDFAVYYCQQSNKDPYTFGGGTKVEIK
[4]
  blocks binding of human APRIL to BCMA: blocks the binding
[5]
  blocks binding of human APRIL to TACI: blocks the binding
[6]
  blocks interaction of APRIL with TACI: effectively blocks
BAFF
  binding to BAFF: does not bind BAFF
Healthy human volunteers; healthy human volunteers
  Gd-IgA1: reduced
Healthy human volunteers; healthy volunteers
  levels of IgA: significantly reduce the levels of IgA
Patients with IgAN; [9]
  Gd-IgA1: sustained reductions
  free (unbound) APRIL: sustained reductions
  proteinuria (as measured by reduction in UPCR): sustained reductions
  tolerability: well-tolerated
Patients with IgAN; [10]
  BION-1301 exposures after transition to SC dosing: maintained similar BION-1301 exposures
  biomarker responses after transition to SC dosing: maintained similar BION-1301 exposures, biomarker responses
  proteinuria reductions after transition to SC dosing: maintained similar BION-1301 exposures, biomarker responses and proteinuria reductions
Patients with IgAN; following IV infusion, patients with IgAN vs healthy volunteers at same dose and schedule
  serum BION-1301 concentrations: appeared comparable to those observed in healthy volunteers at the same dose and schedule
Patients with IgAN; patients treated with BION-1301, on average
  24-hour UPCR: reduction in 24-hour UPCR which was evident by 3 months and continue to decline beyond 1 year
[7]
  IgA: significantly lower
  IgM: significantly lower
[8]
  blocks interaction of APRIL with BCMA: effectively blocks
